Positions count from the first letter of the chain named.

Assay [1] has as its target T1, cynomolgus IgE (recombinant chimaeric D12 variable region / cynomolgus IgE constant region) (cynomolgus monkey (constant region)).
T1 construct: also called cyno IgE; cynomolgus IgE (in house HEK-EBNA derived)
Briefly: HTRF receptor-ligand competition, scFv titrated; Eu-cryptate cynomolgus IgE binding to human FcεRI-Fc; geomean. How it is done: (§1) Purified scFv were tested in a receptor-ligand binding HTRF® (Homogeneous Time-Resolved Fluorescence) assay format for inhibition of either human IgE (U266-derived [Ikeyama et. al. 1986. Molecular Immunology 23 (2); p159-167]) or cyno IgE (recombinant, see materials and methods) labelled with europium cryptate (CIS bio International 62EUSPEA), binding to human FcεR1-Fc (in house NS0 cell produced). Example scFv potency data is included in Table 5a
(§2) Purified scFv were tested in a receptor-ligand binding HTRF® (Homogeneous Time-Resolved Fluorescence) assay format for inhibition of either human IgE (U266-derived [Ikeyama et. al. 1986. Molecular Immunology 23 (2); p159-167]) or cyno IgE (recombinant, see materials and methods) labelled with europium cryptate (CIS bio International 62EUSPEA), binding to human FcεR1-Fc (in house NS0 cell produced).
Background: In TR-FRET formats the signal depends on donor and acceptor labels being close together.

Assay [2] deals with human IgEλ (U266 derived) (human, UniProt P01854 1-546). As to the kind of experiment: HTRF receptor-ligand competition, scFv titrated; Eu-cryptate human IgE (U266) binding to human FcεRI-Fc; geomean. How it is done:
as §1, §2

Assay [3] addresses T2, human IgEλ (U266 derived) (human, UniProt P01854 1-546).
T2 construct: mature; full-length IgE purified from U266 cells (Ikeyama et al. 1986); labelled with europium cryptate in the HTRF assays; also called human IgE (U266-derived)
The assay is described as above. Here is the method: as §1, §2

T1 sequence (heavy, as listed by the source limits assumed, chain 1 of 2): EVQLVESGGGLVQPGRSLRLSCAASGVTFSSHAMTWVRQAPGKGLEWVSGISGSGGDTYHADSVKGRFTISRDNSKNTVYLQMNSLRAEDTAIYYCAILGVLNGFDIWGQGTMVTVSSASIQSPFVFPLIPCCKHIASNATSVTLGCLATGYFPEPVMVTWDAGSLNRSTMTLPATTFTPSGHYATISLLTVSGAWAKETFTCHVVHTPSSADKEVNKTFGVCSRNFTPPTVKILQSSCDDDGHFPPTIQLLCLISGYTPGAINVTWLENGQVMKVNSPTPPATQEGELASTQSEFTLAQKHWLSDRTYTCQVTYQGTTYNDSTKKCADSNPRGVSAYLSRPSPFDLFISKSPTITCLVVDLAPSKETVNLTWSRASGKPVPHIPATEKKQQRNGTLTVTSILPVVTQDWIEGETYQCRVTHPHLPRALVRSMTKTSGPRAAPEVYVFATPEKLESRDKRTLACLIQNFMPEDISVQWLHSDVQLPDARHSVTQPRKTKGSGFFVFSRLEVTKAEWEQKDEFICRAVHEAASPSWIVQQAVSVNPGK
T1 sequence (light, as listed by the source limits assumed, chain 2 of 2): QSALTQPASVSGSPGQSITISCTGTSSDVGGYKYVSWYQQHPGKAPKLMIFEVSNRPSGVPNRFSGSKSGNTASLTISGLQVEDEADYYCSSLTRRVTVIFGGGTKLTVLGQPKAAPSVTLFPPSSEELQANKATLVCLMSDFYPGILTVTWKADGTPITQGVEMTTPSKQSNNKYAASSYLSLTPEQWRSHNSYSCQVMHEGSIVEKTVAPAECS

B1: Antibody 8 (scFv) (scFv, V domains shown)
VH: EVQLLESGGGLVQPGGSLRLSCAAPGFTFSSYAMSWVRQAPGKGLEWVSAISGGSGGRTYYADSVKGRFTISRDNSKNTLYLQMNSLRAEDTAVYYCARHIAVAGTRGFDYWGRGTLVTVSS
VL: SYVLTQPPSVSVSPGQTASITCSGDKLGDTYASWYRQRSGQSPVLVIYQDDKRPSGIPERFSGSNSGNTATLTISGTHTMDEADYYCLAWDTRTSGAVFGGGTKLTVL
notes: purified scFv
Consider B1, for which the IC50 (usually the concentration at which inhibition is half-maximal) is 438 nM in assay [1] and 8 nM in assay [2].

B2: Antibody 28 (scFv) (scFv, V domains shown)
VH: EVQLLESGGGLVQPGGSLRLSCAASGFTFSSYAMSWVRQAPGKGLEWVSAISGSGGRTYYADSVKGRFTISRDNSKNTLYLQMNSLRAEDTAVYYCARLWFPAITRGFDYWGRGTLVTVSS
VL: B1 VL
notes: purified scFv
B2 yielded an IC50 in assay [2] of 4 nM.

B3: Antibody 10 (scFv) (scFv, V domains shown)
VH: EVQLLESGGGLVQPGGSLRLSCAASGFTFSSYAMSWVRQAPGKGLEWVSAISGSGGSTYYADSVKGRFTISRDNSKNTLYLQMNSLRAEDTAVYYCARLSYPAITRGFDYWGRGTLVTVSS
VL: B1 VL with T30K
notes: purified scFv
Regarding B3, the 50% inhibitory concentration (IC50) in assay [3] was found to be 10 nM.

B4: Antibody 31 (scFv) (scFv, V domains shown)
VH: B2 VH with W100S, F101Y
VL: B1 VL with T30K
notes: purified scFv
Take B4: the IC50 in assay [2] came to 9 nM.

B5: Antibody 29 (scFv) (scFv, V domains shown)
VH: B2 VH with W100T
VL: B1 VL
notes: purified scFv
Consider B5, for which the IC50 in assay [2] stood at 6 nM.

B6: Antibody 20 (scFv) (scFv, V domains shown)
VH: B2 VH with L99S, W100T, F101Y, P102F, I104S
VL: B1 VL with T30K
notes: purified scFv
In assay [2], B6 yielded an IC50 of 5 nM.

B7: Antibody 30 (scFv) (scFv, V domains shown)
VH: B2 VH with W100S, F101Y
VL: B1 VL
notes: purified scFv
As to B7, the IC50 in assay [2] is 4 nM.

B8: Antibody 21 (scFv) (scFv, V domains shown)
VH: B2 VH with W100T
VL: B1 VL with T30K
notes: purified scFv
The molecule B8 came in with an IC50 in assay [2] of 4 nM.

B9: Antibody 14 (scFv) (scFv, V domains shown)
VH: B2 VH with S25P, A33P, R57S, L99H, W100I, F101A, P102V, I104G
VL: B1 VL with Y2F, T5S
notes: purified scFv
For the molecule B9, the IC50 in assay [2] amounted to 7 nM.

B10: Antibody 27 (scFv) (scFv, V domains shown)
VH: B2 VH with L99S, W100T, F101Y, P102F, I104S
VL: B1 VL
notes: purified scFv
For B10, the IC50 came out at 379 nM in assay [1] and 2 nM in assay [2].

B11: Antibody 19 (scFv) (scFv, V domains shown)
VH: B1 VH with P25S, I51V
VL: B1 VL with Y2F, G76R
notes: purified scFv
With B11, the IC50 in assay [1] was determined as 197 nM; in assay [2], 9 nM.

B12: Antibody 25 (scFv) (scFv, V domains shown)
VH: B1 VH with V120I
VL: B1 VL with Y2F
notes: purified scFv
With B12, the IC50 in assay [1] worked out at 188 nM; in assay [2] it was 6 nM.

B13: Antibody 24 (scFv) (scFv, V domains shown)
VH: B1 VH with S121P
VL: B1 VL with Y2F
notes: purified scFv
On to B13, for which the IC50 in assay [1] is 196 nM; in assay [2], 4 nM.

B14: Antibody 9 (scFv) (scFv, V domains shown)
VH: B1 VH with P25S
VL: B1 VL with Y2F, T5S
notes: purified scFv
Consider B14, for which the results for the IC50 in assay [1] and in assay [3] were 138 nM and 6 nM, respectively.

B15: Antibody 23 (scFv) (scFv, V domains shown)
VH: B1 VH with P25S, G26E, S30G
VL: B1 VL with T69A
notes: purified scFv
Turning to B15, the 50% inhibitory concentration (IC50) worked out at 331 nM in assay [1] and 7 nM in assay [2].

B16: Antibody 16 (scFv) (scFv, V domains shown)
VH: B1 VH
VL: B1 VL with K104E
notes: purified scFv
In the case of B16, the IC50 in assay [1] is 280 nM; in assay [2], 10 nM.

B17: Antibody 13 (scFv) (scFv, V domains shown)
VH: B2 VH with T69A, I70V, L99H, W100I, F101A, P102V, I104G
VL: B1 VL with K52R
notes: purified scFv
The molecule B17 returned an IC50 in assay [2] of 9 nM.

B18: Antibody 15 (scFv) (scFv, V domains shown)
VH: B1 VH
VL: B1 VL with K52R
notes: purified scFv
On to B18, for which the IC50 turned out to be 135 nM in assay [1] and 4 nM in assay [3].

B19: Antibody 36 (scFv) (scFv, V domains shown)
VH: B2 VH with L99H, W100I, F101A, P102V, I104G
VL: B1 VL with Y2F, V3M, T5S
notes: purified scFv
With B19, the IC50 stood at 407 nM in assay [1] and 8 nM in assay [3].

B20: Antibody 22 (scFv) (scFv, V domains shown)
VH: B2 VH with V64A, S85G, L99H, W100I, F101A, P102V, I104G
VL: B1 VL with A32T, I57V
notes: purified scFv
In assay [2], B20 had a half-maximal inhibitory concentration (IC50) of 7 nM.

B21: Antibody 2 (scFv) (scFv, V domains shown)
VH: B2 VH with L99H, W100I, F101A, P102V, I104G
VL: B1 VL with K52R
notes: purified scFv
For B21, the IC50 worked out at 398 nM in assay [1] and 7 nM in assay [2].

B22: Antibody 17 (scFv) (scFv, V domains shown)
VH: B1 VH
VL: B1 VL with N68D
notes: purified scFv
Take B22: the IC50 in assay [1] turned out to be 264 nM; in assay [2], 7 nM.

B23: Antibody 4 (scFv) (scFv, V domains shown)
VH: B2 VH with L99H, W100I, F101A, P102V, I104G, L116P
VL: B1 VL with Y2F
notes: purified scFv
Consider B23, for which the IC50 turned out to be 600 nM in assay [1] and 5.4 nM in assay [2].

B24: Antibody 5 (scFv) (scFv, V domains shown)
VH: B2 VH with L99H, W100I, F101A, P102V, I104G
VL: B1 VL with K52R, V107A
notes: purified scFv
With B24, the IC50 in assay [1] was 356 nM; in assay [2], 6 nM.

B25: Antibody 12 (scFv) (scFv, V domains shown)
VH: B2 VH with L99H, W100I, F101A, P102V, I104G
VL: B1 VL with Y2F, V3M, T5S
notes: purified scFv
With B25, the IC50 came to 473 nM in assay [1] and 8 nM in assay [3].

B26: Antibody 34 (scFv) (scFv, V domains shown)
VH: B1 VH with F29L
VL: B1 VL with V12A, S55P, S75R, T106S
notes: purified scFv
With B26, the results for the IC50 in assay [1] and in assay [3] were 500 nM and 3 nM, respectively.

B27: Antibody 18 (scFv) (scFv, V domains shown)
VH: B1 VH with P25S, M34V
VL: B1 VL with N68D, H78R
notes: purified scFv
As for B27, the values for the IC50 in assay [1] and in assay [2] were 129 nM and 6 nM, respectively.

B28: Antibody 11 (scFv) (scFv, V domains shown)
VH: B2 VH with L86P, L99H, W100I, F101A, P102V, I104G, T118A
VL: B1 VL with T21A
notes: purified scFv
B28 returned a concentration for half-maximal inhibition (IC50) in assay [2] of 7 nM.

B29: Antibody 33 (scFv) (scFv, V domains shown)
VH: B1 VH with R19S, R73K
VL: B1 VL with Q41L, V44A
notes: purified scFv
With B29, the values for the IC50 in assay [1] and in assay [3] were 533 nM and 14 nM, respectively.

B30: Antibody 26 (scFv) (scFv, V domains shown)
VH: B2 VH with F27L, S31G, T78M, L99H, W100I, F101A, P102V, I104G
VL: B1 VL with Y2F, S75G
notes: purified scFv
Turning to B30, the IC50 in assay [1] came out at 359 nM; in assay [2] it was 8 nM.

B31: Antibody 7 (scFv) (scFv, V domains shown)
VH: B2 VH with S54G, L99H, W100I, F101A, P102V, I104G
VL: B1 VL with V12A
notes: purified scFv
For the molecule B31, the IC50 is 569 nM in assay [1] and 8 nM in assay [2].

B32: Antibody 3 (scFv) (scFv, V domains shown)
VH: B2 VH with L99H, W100I, F101A, P102V, I104G
VL: B1 VL with N68D
notes: purified scFv
For the molecule B32, the IC50 in assay [1] worked out at 237 nM; in assay [2] it was 5 nM.

B33: Antibody 6 (scFv) (scFv, V domains shown)
VH: B2 VH with R72K, L99H, W100I, F101A, P102V, I104G, T115A
VL: B1 VL
notes: purified scFv
B33 yielded an IC50 in assay [2] of 8 nM.
